Experimental data from US20210037856A1, “Ruminant Feed Composition Comprising A Muramidase” (Novozymes A/S, priority 2018, published 2021).

Tested on: rumen fluid
Assay: in vitro ruminal fermentation, 22 muramidases, 12 h (Example 4)
Design: species or system cow; DMd: unit not given here
Conditions: muramidase 0.20 mg/40 ml; for Acetate / Butyrate / Propionate: VFA production after 12 h; for DMd: dry matter digestibility after 12 h of ruminal fermentation in vitro; for Total VFA: sum of VFA after 12 h; for Carbon in VFA: summed carbon in VFA after 12 h
Description: The trial was performed by Alimetrics (Alimetrics Ltd, Koskelontie 19B, FIN-02920 Espoo, Finland) using 120 mL serum bottles as fermentation vessels. The fermentation preparation and procedure is presented in Kettunen et al., (Kettunen H., J. Vuorenmaa, D. Gaffney and J. Apajalahti (2016): Yeast hydrolysate product enhances ruminal fermentation in vitro. J. App. Anim. Nutr., Vol. 4; e1; page 1 of 7). In short, the method is as follows: All bottles were initially filled with 1 g of feed DM composed from corn silage, barley meal, soybean meal, at the amounts of 0.5, 0.4, and 0.1 g DM, respectively. Subsequently, the bottles were flushed with CO2 passed through a hot copper catalyst for O2 scavenging and sealed with thick butyl rubber stopper. Anaerobic, reduced and temperature adjusted (+38° C.) artificial saliva buffer solution (Modified from Agriculture Handbook No. 379, (USDA, Washington, D.C., 1975), volume of 37.65 ml), freshly strained rumen fluid (5% inoculum; volume of 2 ml), and test compounds (volume of 0.35 ml) was introduced into the fermentation vessels under the oxygen-free CO2 flow. Following rumen fluid was collected from a ruminal cannulated cow. Rumen fluid was pumped directly from the rumen into a preheated thermos and immediately closed, and transported to Alimetrics laboratory. The rumen fluid was used for inoculation within 2 hours of harvest. To ensure that both liquid and particle associated ruminal microbes were present in the inoculum both fractions were obtained. Liquid and solid fractions were strained through a metal mesh (grid size 3×3 mm) under anaerobic conditions prior to buffer dilution.
Following inoculation with rumen fluid, buffer and test solution, the vessels were sealed with the butyl rubber septum's. All fermentation vessels were inoculated in random order to prevent the possible block effects. Inoculation time for each fermentation vessel was registered and was taken into account op on each sampling to ensure that duration of the fermentation was the same for each sample. The fermentation was continued for 12 h in a gyratory shaker at +38° C. Fermentation gas produced was measured and relived by collection of the fermentation gas in syringes at time 3, 6, 9, and 12 h. Feed residues were measured after 12 h fermentation.
The trial design was a dosage response, complete randomized design with 27 treatments using 145 fermentation vessels according to table 5. […] Negative control was supplemented with the same buffer solution that was used for diluting the enzymes to reach the same liquid volume as the supplemented fermentation vessels. The ionophore Monensin (Monensin sodium salt, 90-95% TLC (Sigma Aldrich; Product code: M5273-1G)) was chosen as a positive control because it is a ruminants feed additive that affects volatile fatty acids (VFA) production.
Liquid Samples Obtained at 12 h were Analyzed for the Concentration of VFA (Acetate, Propionate, butyrate, and valerate) by GC-FID using a glass column packed with 80/120 carbopack B-DA/4% Carbowax stationary and helium as a carrier gas (Kettunen H., J. Vuorenmaa, T. Rinttilä, H. Grönberg, E. Valkonen and J. Apajalahti (2015): Natural resin acid-enriched composition as a modulator of intestinal microbiota and performance enhancer in broiler chicken. J. App. Anim. Nutr., Vol. 3; e2; page 1 of 9).
Digestibility of dry matter was quantified by determination of dry matter in the original feed matrix and in all fermentation vessels after 12 h of fermentation. Feed residues from the fermentation vessels were obtained by filtration tared sintered glass filters, washed with water and dried at 105° C. for 12 hours. Finally, the glass filters are weighed for the residual feed dry matter.
Dry matter digestibility (DMd) was calculated at the ratio between feed residues after end fermentation and the dry matter fed. […]

| Molecule | Acetate | Butyrate | Propionate | DMd | Total VFA | Carbon in VFA |
| --- | --- | --- | --- | --- | --- | --- |
| T: mature muramidase polypeptide from Chaetomium sp., novel MUR polypeptide; T in Example 4 (protein, Chaetomium sp) YHIKGSIVNCRAGPGTSHAVKKTYAKGQNVQISCQTTGNIIHGNNIWDLTQDGCYVADYYVKTGTDGFVTDKCSSSGNSGVSGTSTSSVGGAAGPMKDDYPYKSNCEGTDPWLYFKCQCTSFVAWRINERLGIKFHNQYKGVNWGDANTWDDAAKRTGVTVNKTPKPGCVAQTDKGTWGHVAWVAAVGDETVTIEEYNYGGKERYGTRTVPKGEFDYIHVKN | 53.6 mmol/L | 7.8 mmol/L | 45.1 mmol/L | 0.57 | 107 mmol/L | 277 mmol/L |
| Y: mature muramidase polypeptide from Ovatospora brasiliensis, novel MUR polypeptide; Y in Example 4 (protein, listed as Ovatospora brasiliensis) YPVKADSLNCRSGPGTSYKVVKTYKKGADIKISCQTEGPSVNGDNLWIKTQDGCYVADYYVKTGTNGYVAKKCSSGGSTGGGSGGGKGNLPGLNAKQSSHARAIVAQAKKDGVGLHGCEAGIATALVESGIKVYANKKVPASLKYPHDAVGSDHDSIGIFQQRAVYYPNIAADMDPARSAHQFFAKMKGVSGWKTMAVGKLCQKVQVSAYPDRYAKRVSEATKICKAAGI | 50.8 mmol/L | 6.1 mmol/L | 43.1 mmol/L | 0.57 | 100 mmol/L | 258 mmol/L |
| Z: mature muramidase polypeptide from Penicillium wellingtonense, novel MUR polypeptide; Z in Example 4 (protein, Penicillium wellingtonense) YPITGDVVNCRSGPGTTYDVVKSYKLNADVSITCQAPGTDVKGDSVWDKTADGCYVADYYVKTGSSSYVTTKCGGDDDGGDNDGGSSGNLPGLTSTQSKHAKDIIAEAKSEDLGRQGCLAGIATAIVESNILIYANSGVPESLKYPHDAVGSDHDSVGIFQQRAMFYKDIAADMDAGKSAGQFFGKMKAVSGWKSMDVGTLCQKVQGSAYPSRYAEQVSKAEKICKAGGL | 48.7 mmol/L | 6.9 mmol/L | 39.6 mmol/L | 0.56 | 96 mmol/L | 247 mmol/L |
| U: mature muramidase polypeptide from Zopfiella Sp., novel MUR polypeptide; U in Example 4 (protein, Zopfiella sp) YPIKGDTVNCRSGPGTSFAVKKTYAKGKDIKITCQTTGTSVNGNNIWDKTSDGCYVADYYVKTGKDGFVTDKCDASSVPKPPATKIPGPVTNDYPYKSSCGGVDPWNYYKCQCTSFVAWRVNKRLGKKFHNRYKGHAWGNANQWDEAAKQSGVKVNSTPKPGCIAQTNAGSYGHVAWVTAVGKDTVTIEEYNWNKKLGYGTRTVAKSKFNYIHLEP | 49.1 mmol/L | 7.1 mmol/L | 40.5 mmol/L | 0.60 | 97 mmol/L | 251 mmol/L |
| N: mature muramidase polypeptide from Ovatospora brasiliensis, GH25; N in Example 4 (protein, listed as Ovatospora brasiliensis) FDISNWQPAGTVDFAAAYSSGARFVIIKATEGTSYIDPSFSSHYTKATNAGFIRGGYHFAHPGETTGAAEADYFIAHGGGWSNDGITLPGMLDLESENKGQCWGLSTSAMVSWIKSFSDRYKSRTGVYPLIYTNPSWWSACTGNSNAFVNTNPLVLARYASAPGTIPGGWPYQTIWQNSDSYAYGGDSDIFNGSLDRLKALAKGS | 49.3 mmol/L | 7.2 mmol/L | 40.8 mmol/L | 0.59 | 98 mmol/L | 253 mmol/L |
| W: mature muramidase polypeptide from Chaetomium sp., novel MUR polypeptide; W in Example 4 (protein, Chaetomium sp) YPITGDPLNCRSGPGTSYAIKKSYTKGADIKISCQTEGTSVNGNSIWDKTQDGCYVADFYVKTGVDGYVTKKCSGGGGDTGGGSGGIPGPVKDDYPYKSSCGGVDPWNYYKCQCTSFVAWRINKRLGIKFHNQYKGTNWGNANTWDNAAKKTGVKVNSTPKPGAIAQSNAGNYGHVAWVTAVNGNKVTIEEYNWGKREGYGKRTVDKSAFNYIHVKA | 48.9 mmol/L | 6.7 mmol/L | 40.9 mmol/L | 0.59 | 97 mmol/L | 250 mmol/L |
| V: mature muramidase polypeptide from Acremonium exiguum, novel MUR polypeptide; V in Example 4 (protein, listed as Acremonium exiguum) RSIPIVARAYPGLDDVQSRNAEAALGEIRAEGINPARQACLAVISTALQESELYIYANPAVPESMNYPHDREGGDQDSVGMFQQRPEWYPDIAADMSASGSTRQFLAAMLQVPGWQTMEVSALDQEVQKAEAGNLYGQRIPLATQVCDAAGF | 49.2 mmol/L | 7.1 mmol/L | 40.6 mmol/L | 0.59 | 97 mmol/L | 252 mmol/L |
| S: mature muramidase polypeptide from Aspergffius sp., novel MUR polypeptide; S in Example 4 (protein, listed as Aspergillus sp.) YPVKADVHCRSGPGTSYSIVKTYSTGTQISVSCQAAGTDVDGDQLWDKTSDGCYVSDYYVSTGSSNYVTSHCPTEYAIKTDVNCRSGPGTNYGIVKTYNQGVMVSLNCQASGTDVDGDSLWDKTSDGCYVSDYYVATGSSSYVTSACSGSSSSGGGGSSSSGNLPSLDSTQSAHARAIIGEAKSQNVGRQGCLAGIATALVESSMLMYANSNVAASLSYPHDAVGSDYDSVGLFQQRVSIYTNLAADMDAAQSAGQFFDEMKKVSGWETMNVGDLCQEVQRSAYPDRYAGEVSTAESICSAGGL | 49.4 mmol/L | 7.1 mmol/L | 41.2 mmol/L | 0.58 | 98 mmol/L | 254 mmol/L |
